One block for each substance: values may come before it.
Legend:
[1] = target: Smc5/6 hexameric complex lacking Nse5/6 with Nse4-6xHis-SNAP labelled with Alexa 647 (S. cerevisiae) (UniProt Q08204); experiment: single-molecule fluorescence, counting of photobleaching steps; Alexa 647-labelled complex (2 nM unless stated otherwise) on surface-tethered lambda-DNA; 40 mM Tris-HCl pH 7.5, 100 mM NaCl, 7.5 mM MgCl2, 2 mM ATP, 30 °C; loop-extruding complexes; settings: remark: other sources report otherwise
[2] = target: Smc5/6 hexameric complex lacking Nse5/6 (S. cerevisiae) (UniProt Q08204); experiment: mass photometry; 10 nM hexamer with 10 nM purified Nse5/6 (1:1) and 5 nM 200 bp DNA, no ATP; 40 mM Tris-HCl pH 7.5, 100 mM potassium glutamate, 7.5 mM MgCl2, 30 °C for 10 min; settings: remark: other sources report otherwise
[3] = target: Smc5/6 hexameric complex lacking Nse5/6 (S. cerevisiae) (UniProt Q08204); experiment: mass photometry; 10 nM complex with 5 nM 200 bp linear double-stranded DNA, no ATP; 40 mM Tris-HCl pH 7.5, 100 mM potassium glutamate, 7.5 mM MgCl2, 30 °C for 10 min; monomer to dimer of complexes; settings: remark: other sources report otherwise
[4] = target: Smc5/6 hexameric complex lacking Nse5/6 (S. cerevisiae) (UniProt Q08204)
[5] = target: Smc5/6 octameric complex with Nse2-6xHis-SNAP labelled with Alexa 647 (S. cerevisiae) (UniProt Q08204); experiment: single-molecule fluorescence, counting of photobleaching steps; Alexa 647-labelled complex (2 nM unless stated otherwise) on surface-tethered lambda-DNA; 40 mM Tris-HCl pH 7.5, 100 mM NaCl, 7.5 mM MgCl2, 2 mM ATP, 30 °C; loop-extruding complexes
[6] = target: Smc5/6 octameric complex with Nse4-6xHis-SNAP labelled with Alexa 647 (S. cerevisiae) (UniProt Q08204); experiment: as above
[7] = target: Smc5/6 octamer (WT, with Nse5/6) (Saccharomyces cerevisiae (W303)) (UniProt Q08204+Q12749+Q07913+P38632+Q05541+P43124+Q03718+P40026); experiment: single-molecule fluorescence; settings: 1 M NaCl wash after 1 h incubation; nonlooping complexes, n=481; both ends tethered to surface; Mass photometry: 40 mM Tris-HCl pH 7.5, 100 mM K-glutamate, 7.5 mM MgCl2, 30 C, 10 nM protein, 5 nM DNA; single-molecule: 2 nM Smc5/6, imaging buffer with …
[8] = target: Smc5/6 hexamer (lacking Nse5/6) (Saccharomyces cerevisiae (W303)) (UniProt Q08204+Q12749+Q07913+P38632+Q05541+P43124); experiment: single-molecule fluorescence; settings: 1 M NaCl wash; both ends tethered to surface; Mass photometry: 40 mM Tris-HCl pH 7.5, 100 mM K-glutamate, 7.5 mM MgCl2, 30 C, 10 nM protein, 5 nM DNA; single-molecule: 2 nM Smc5/6, imaging buffer with …

stoichiometry N [1]: 2
Substance: Smc5/6 hexameric complex lacking Nse5/6 with Nse4-6xHis-SNAP labelled with Alexa 647, Q08204 1-1093; Q12749 1-1114; Q07913 1-336; P38632 1-267; Q05541 1-303; P43124 1-402

stoichiometry N [5]: 2
Substance: Smc5/6 octameric complex with Nse2-6xHis-SNAP labelled with Alexa 647 (from UniProt Q08204 1-1093; Q12749 1-1114; Q07913 1-336; P38632 1-267; Q05541 1-303; P43124 1-402; Q03718 1-556)

Second part, the substance before the results:

Substance: Smc5/6 hexameric complex lacking Nse5/6, Q08204 1-1093; Q12749 1-1114; Q07913 1-336; P38632 1-267; Q05541 1-303; P43124 1-402
dimers, percent of total counts, with Nse5/6 added 1:1 [2]: 3%
dimers, percent of normalized population [3]: 40%
dimers, percent of total counts [3]: 25%
looping probability of DNA with the hexamer compared with the WT octamer [4]: 15 fold

Substance: Smc5/6 octameric complex with Nse4-6xHis-SNAP labelled with Alexa 647 (from UniProt Q08204 1-1093; Q12749 1-1114; Q07913 1-336; P38632 1-267; Q05541 1-303; P43124 1-402; Q03718 1-556)
dimer fraction [6]: 100%
stoichiometry N [6]: 2

Substance: lambda DNA, 48.5 kbp (48,502 bp)
binding signal (% remaining bound after high-salt wash) [7]: 7
binding signal (% remaining bound after high-salt wash) [8]: 0
